Test system: GST-VP1 (Chicken anaemia virus (strain CAU269/7?))
Experiment: EMSA (agarose)
Details: 50 mM Tris-HCl pH 7.5, 120 mM KCl, 1.0 mM EDTA, 0.5 mM DTT, 30 mg/ml BSA (so in the source); 100 ng DNA in 20 ul, 37 C, 30 min (Results: 1 h); 0.8% agarose/TAE. Text …

| Substance | percent unbound DNA (% unbound DNA) |
| --- | --- |
| linear pcDNA3.1 (EcoRI) | 84.7 |
| pCAV, open circular (form I) | 59.6 |
| CAV genome minus-strand linear ssDNA | 53.3 |
| pCAV, supercoiled (form II) | 82.6 |
| M13mp18 ssDNA | 46.5 |

— article PMC5936033
